In the experiment the target is rat TRPV1, full-length channel expressed in HEK293 cells (rat) (UniProt O35433).
rat TRPV1, full-length channel expressed in HEK293 cells (rat), sequence (O35433 whole entry): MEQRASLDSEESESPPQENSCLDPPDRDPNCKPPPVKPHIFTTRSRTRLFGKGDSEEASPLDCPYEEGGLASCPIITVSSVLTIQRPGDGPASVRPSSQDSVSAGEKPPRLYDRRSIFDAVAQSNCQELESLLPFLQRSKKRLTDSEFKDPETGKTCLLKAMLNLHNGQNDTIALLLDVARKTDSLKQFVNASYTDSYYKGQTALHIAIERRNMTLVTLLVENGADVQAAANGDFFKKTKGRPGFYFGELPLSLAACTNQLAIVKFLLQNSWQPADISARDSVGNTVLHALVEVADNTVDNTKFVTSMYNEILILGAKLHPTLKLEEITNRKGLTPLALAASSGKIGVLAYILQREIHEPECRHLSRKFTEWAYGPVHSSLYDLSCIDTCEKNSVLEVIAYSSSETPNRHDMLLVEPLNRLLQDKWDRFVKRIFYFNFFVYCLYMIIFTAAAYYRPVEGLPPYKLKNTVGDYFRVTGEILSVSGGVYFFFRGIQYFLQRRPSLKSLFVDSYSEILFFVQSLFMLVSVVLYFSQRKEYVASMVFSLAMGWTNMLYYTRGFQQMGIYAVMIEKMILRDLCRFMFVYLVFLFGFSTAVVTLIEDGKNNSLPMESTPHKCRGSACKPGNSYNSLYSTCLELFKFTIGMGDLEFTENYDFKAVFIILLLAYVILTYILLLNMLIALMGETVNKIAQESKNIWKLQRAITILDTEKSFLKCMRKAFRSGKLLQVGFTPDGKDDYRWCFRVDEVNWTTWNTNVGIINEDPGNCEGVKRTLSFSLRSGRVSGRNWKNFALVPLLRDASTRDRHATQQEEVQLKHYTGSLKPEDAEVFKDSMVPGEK

B1: bivalent K2 (K2K2) (protein)
chain: NCAKEGEVCGWGSKCCHGLDCPLAFIPYCEKYRPYVPVTTNCAKEGEVCGWGSKCCHGLDCPLAFIPYCEK
Take B1: the fractional dissociation 1 min after toxin removal (current 1 min after removal divided by steady-state current with toxin), whole-cell patch clamp at +120 mV, TRPV1 in HEK cells is 0.96.

B2: bivalent K1 (K1K1) (protein)
chain: GDCAKEGEVCSWGKKCCDLDNFYCPMEFIPHCKKYKPYVPVTTDCAKEGEVCSWGKKCCDLDNFYCPMEFIPHCKKYK
In turn, B2 showed a fractional dissociation 1 min after toxin removal (current 1 min after removal divided by steady-state current with toxin), whole-cell patch clamp at +120 mV, TRPV1 in HEK cells of 0.3.
